Assay results from patent US20130122568.
Substitutions are numbered along the chain they refer to.

What was measured:
Experiment in all cases: cleavage_in_vitro
[1] = test system: T1, SspI (Sphaerotilus species); details: NEB1, 37 C
T1 sequence: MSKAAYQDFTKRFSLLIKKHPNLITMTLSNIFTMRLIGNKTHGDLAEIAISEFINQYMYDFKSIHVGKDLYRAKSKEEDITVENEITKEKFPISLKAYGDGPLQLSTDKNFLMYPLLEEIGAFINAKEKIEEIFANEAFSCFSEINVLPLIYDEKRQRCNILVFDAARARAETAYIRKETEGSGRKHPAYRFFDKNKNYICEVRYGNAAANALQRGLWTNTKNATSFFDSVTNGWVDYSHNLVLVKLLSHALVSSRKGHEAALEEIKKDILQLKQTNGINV

[2] = molecular target: EcoRI (Escherichia coli RY13) (UniProt P00642); details: NEB3, 37 C
[3] = test system: T2, BspQI (Bacillus sphaericus); details: NEB3, 50 C
T2 sequence: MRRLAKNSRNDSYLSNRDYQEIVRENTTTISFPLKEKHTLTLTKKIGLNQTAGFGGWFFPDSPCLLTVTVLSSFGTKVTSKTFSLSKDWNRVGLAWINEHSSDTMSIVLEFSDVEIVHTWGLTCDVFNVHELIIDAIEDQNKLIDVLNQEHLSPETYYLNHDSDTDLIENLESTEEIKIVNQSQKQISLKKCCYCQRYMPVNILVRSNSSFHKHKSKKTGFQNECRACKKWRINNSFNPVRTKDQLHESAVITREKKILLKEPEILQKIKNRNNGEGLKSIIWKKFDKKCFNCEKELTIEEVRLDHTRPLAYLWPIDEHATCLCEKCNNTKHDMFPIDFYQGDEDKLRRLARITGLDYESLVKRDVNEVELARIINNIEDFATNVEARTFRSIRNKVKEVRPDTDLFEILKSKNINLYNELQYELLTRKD

[4] = test system: T3, NcoI-HF A2T/R31A (Nocardia corallina); details: NEB4, 37 C
T3 sequence: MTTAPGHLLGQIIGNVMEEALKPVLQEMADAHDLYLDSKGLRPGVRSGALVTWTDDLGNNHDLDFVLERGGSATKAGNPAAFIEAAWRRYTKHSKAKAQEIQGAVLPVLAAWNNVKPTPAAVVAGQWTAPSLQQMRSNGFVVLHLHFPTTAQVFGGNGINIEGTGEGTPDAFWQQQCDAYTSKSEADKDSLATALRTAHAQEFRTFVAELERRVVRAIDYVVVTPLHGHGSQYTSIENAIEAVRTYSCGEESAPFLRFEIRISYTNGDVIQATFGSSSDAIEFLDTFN

[5] = molecular target: T4, BamHI-HF E163A/E167T (Bacillus amyloliquefaciens) (UniProt P23940); details: NEB1, 37 C
T4 sequence: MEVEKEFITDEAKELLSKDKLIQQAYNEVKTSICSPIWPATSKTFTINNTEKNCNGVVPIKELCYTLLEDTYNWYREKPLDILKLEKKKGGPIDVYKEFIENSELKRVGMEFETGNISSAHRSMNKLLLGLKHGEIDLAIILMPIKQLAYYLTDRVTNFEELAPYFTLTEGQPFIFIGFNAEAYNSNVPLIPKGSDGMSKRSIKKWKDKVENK

[6] = test system: T5, SbfI-HF K251A (Streptomyces species Bf-61); details: NEB1, 37 C
T5 sequence: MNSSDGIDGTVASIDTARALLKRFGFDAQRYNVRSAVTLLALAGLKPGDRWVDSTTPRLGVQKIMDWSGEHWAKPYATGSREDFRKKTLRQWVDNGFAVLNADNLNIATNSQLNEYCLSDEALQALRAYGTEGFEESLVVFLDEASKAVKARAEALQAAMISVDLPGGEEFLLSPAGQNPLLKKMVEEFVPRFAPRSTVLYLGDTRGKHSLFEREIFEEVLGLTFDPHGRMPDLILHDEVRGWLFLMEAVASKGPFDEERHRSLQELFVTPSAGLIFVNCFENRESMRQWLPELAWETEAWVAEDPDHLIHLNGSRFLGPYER

[7] = test system: T6, NcoI (Nocardia corallina); details: NEB1, 37 C
T6 sequence: T3 sequence with T2A, A31R

Sequence of EcoRI (Escherichia coli RY13) (P00642 whole entry): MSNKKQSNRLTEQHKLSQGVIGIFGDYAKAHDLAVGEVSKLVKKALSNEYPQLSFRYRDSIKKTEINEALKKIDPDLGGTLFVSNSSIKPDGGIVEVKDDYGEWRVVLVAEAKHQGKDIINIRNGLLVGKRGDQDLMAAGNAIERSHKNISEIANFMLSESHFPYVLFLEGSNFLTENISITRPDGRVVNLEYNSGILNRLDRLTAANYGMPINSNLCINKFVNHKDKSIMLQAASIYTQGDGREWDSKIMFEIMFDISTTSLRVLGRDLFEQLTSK

## lambda phage DNA
[1]
  activity (fidelity index): 64
[2]
  activity (fidelity index): 250
[3]
  activity (fidelity index): 32
[4]
  activity (fidelity index): > 64000
[5]
  activity (fidelity index): > 4000
[6]
  activity (fidelity index): 1000
[7]
  activity (fidelity index): 120
